These results are taken from PMC12377726 (Proceedings of the National Academy of Sciences of the …, 2025).

B1: G001_gp1_V07_VRC01c_102 (antibody, V domains shown)
VH: QVQLVQSGAEVKKPGASVKVSCKASGYTFTGYYMHWVRQAPGQGLEWMGWINPISGGTNYAQEFQDWVTMTRDTSISTAYMELSRLRSDDTAVYYCARHDSSENAFDIWGQGTMVTVSS
VL: DIQMTQSPSTLSASVGDRVTITCRASQSTSRWLAWYQQKPGKAPKLLIYKASSLESGVPSRFSGSGSGTEFTLTISSLQPDDFATYYCQQYTSFGQGTKLEIK
B2: G001_gp1_V06_VRC01c_88 (antibody, V domains shown)
VH: QVQLVQSGAEVKKPGASVKVSCKASGYTFTGYYMHWVRQAPGQGLEWMGWINPNSGGTNYAQKFQGRVTMTRDTSISTAYMELRGLRSDDTAVYYCASLYYYVPGGWGQGTLVTVSS
VL: EIVLTQSPGTLSLSPGERATLSCRASQSVSNSYLAWYQQKPGQAPRLLIYGASSRATGIPDRFSGSGSGTDFTLTISRLEPEDFAVYYCQQYVTFGPGTKVDIK
B3: G001_gp1_V07_VRC01c_110 (antibody, V domains shown)
VH: QVQLVQSGAEVKKPGASVRVSCKASGYTFTDYYMHWVRQAPGQGLEWMGWINPNSGGTNYAQKFQGRVTMTRDTSISTAYMELSGLRSDDTAVYYCARITGYYDSSGYYCLDHWGQGTLVTVAS
VL: EIVLTQSPGTLSLSPGERATLSCRASQSGRSSYLAWYQQKPGQAPRLLIYGASSRATGIPDRFSGSGSGTDFTLTISRLEPEDFAVYYCHQYAAFGQGTKVEIK
B4: G001_gp1_V07_VRC01c_109 (antibody, V domains shown)
VH: QVQLVQSGAEVKKPGASVKVSCKTSGYTFTDYYIHWVRQAPGQGLEWMGWINPNSGGTNYAQKFQGGVTMTRDTSISTAYMDLNRLTSDDTAVYYCTRLPPNRAAPGWWFDPWGQGTLVTVSS
VL: EIVLTQSPGTLSLSPGERATLSCRASQSVSSSYLAWYQQKPGQAPRLLIYGASNRATGIPDRFSGSGSGTDFTLTISRLEPEDFAVYYCQQYGAFGQGTKVEIK
B5: G001_gp1_V07_VRC01c_101 (antibody, V domains shown)
VH: QVQLVQSGAEVKKPGASVKVSCKASRDTFTGYYMHWVRQAPGQGLEWMGWINPNSGGTNYAQKFQDGVTLTRDTSISTAYMELSRLRSDDTAVYYCARTEYYSQRGWAFDIWGQGTMVTVSS
VL: DIQMTQSPSSLSASVGDRVTITCQASQDISNHLNWYQQKPGKAPKLLIYDASNLETGVPLRFSGSGSGTDFTFTISSLQPEDIATYYCQQYDNFGPGTKVDIK
B6: G001_gp1_V07_VRC01c_107 (antibody, V domains shown)
VH: QVQLVQSGAEVKKPGASVKVSCKASGYTFTGYYMHWVRQAPGQGLEWMGWINPSSGGTNYAQKFQGRVTMTRDTSISTAYMELDWLRSDDTAVYYCARVRGATTFDYWGQGTLVTVSS
VL: DIQMTQSPSSLSASVGDRVTITCQASQDISNYLHWYQQKPGKAPKLLIYDASKLETGVPSRFSGSGSGTDFTFTISSLQPEDIATYYCQQYNTFGQGTKLQIK
B7: G001_gp1_V06_VRC01c_87 (antibody, V domains shown)
VH: not shown
VL: EIVMTQSPATLSVSPGERATLSCRASQSVSSNLAWYQQKPGQAPRLLIYGASTRATGIPARFSGSGSGTEFTLTISSLQSEDFAVYYCQQYETFGQGTKVEIK
B8: G001_gp1_V07_VRC01c_105 (antibody, V domains shown)
VH: not shown
VL: EIVMTQSPATLSVSPGERATLSCRASQSVSSNLAWYQQKPGQAPRLLIYGASTRATGIPARFSGSGSGTEFTLTISSLQSEDFAVYYCQQYNIFGQGTKLEIK
B9: G001_gp1_V06_VRC01c_86 (antibody, V domains shown)
VH: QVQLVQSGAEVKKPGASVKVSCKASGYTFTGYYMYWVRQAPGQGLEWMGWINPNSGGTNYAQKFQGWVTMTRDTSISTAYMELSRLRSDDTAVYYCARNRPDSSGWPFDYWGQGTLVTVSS
VL: QSALTQPPSASGSPGQSVTISCTGTSSDVGGYNYVSWYQQHPGKAPKLMIYEVSKRPSGVPDRFSGSKSGNTASLTVSGLQPEDEADYYCSSYEVFGTGTRVTVL

This experiment has as its target eOD-GT8 (engineered outer domain germline-targeting version 8), monomer (HIV-1 gp120 engineered outer domain, …).
As for B1, the binding result is given as “binds”.

For the molecule B2, the binding result is “binds”.

As for B3, the binding result is on record as “binds”. For the molecule B4, the binding result is on record as “binds”. Consider B5, for which the binding result is on record as “binds”. For the molecule B6, the binding result is given as “binds”. In the case of B7 it was “binds”; in that of B8, “binds”. In the case of B9, the binding result was “binds”.
